Measurements taken from paper PMC5611513, “Structure-Based Prototype Peptides Targeting the Pseudomonas aeruginosa Type VI Secretion System Effector as a Novel Antibacterial Strategy” (Frontiers in Cellular and Infection Microbiology, 2017).

Key:
Assay in all cases: ITC
[1] = molecular target: TplEi E219A (Pseudomonas aeruginosa) (UniProt Q9I3K3)
[2] = molecular target: TplEi R266A (Pseudomonas aeruginosa) (UniProt Q9I3K3)
[3] = molecular target: TplEi S215A (Pseudomonas aeruginosa) (UniProt Q9I3K3)
[4] = molecular target: TplEi (Pseudomonas aeruginosa) (UniProt Q9I3K3)

Substance | Kd [1] | Kd [2] | Kd [3] | fold reduction in binding affinity against the wild-type peptide [4]
A peptides (“L” peptide, TplE 82-108 plus EQVEVDD) (from UniProt Q9I3K2 82-115) | 35.5 µM | 46.9 µM | 7.8 µM | 
“L” peptide W92A (from UniProt Q9I3K2 82-115) |  |  |  | 500 fold
